In the experiment the target is T1, recombinant mTOR kinase domain (amino acid 1363-2549) (UniProt P42345 1363-2549).
T1 construct: also called mTOR kinase domain protein; mTOR (in vitro); source: bought: Sigma-Aldrich (Cat #14-770)
In words: co-IP; in vitro: ETV7 and mTOR incubated overnight at 4 °C in the presence or absence of Ndel-FRB and/or 120 aa-LBE; ETV7 IPs immunoblotted for mTOR, ETV7 and Flag. The note with it: both partners purified. A general note: In western blotting, separated proteins are transferred to a membrane and probed.

T1 sequence (P42345 1363-2549): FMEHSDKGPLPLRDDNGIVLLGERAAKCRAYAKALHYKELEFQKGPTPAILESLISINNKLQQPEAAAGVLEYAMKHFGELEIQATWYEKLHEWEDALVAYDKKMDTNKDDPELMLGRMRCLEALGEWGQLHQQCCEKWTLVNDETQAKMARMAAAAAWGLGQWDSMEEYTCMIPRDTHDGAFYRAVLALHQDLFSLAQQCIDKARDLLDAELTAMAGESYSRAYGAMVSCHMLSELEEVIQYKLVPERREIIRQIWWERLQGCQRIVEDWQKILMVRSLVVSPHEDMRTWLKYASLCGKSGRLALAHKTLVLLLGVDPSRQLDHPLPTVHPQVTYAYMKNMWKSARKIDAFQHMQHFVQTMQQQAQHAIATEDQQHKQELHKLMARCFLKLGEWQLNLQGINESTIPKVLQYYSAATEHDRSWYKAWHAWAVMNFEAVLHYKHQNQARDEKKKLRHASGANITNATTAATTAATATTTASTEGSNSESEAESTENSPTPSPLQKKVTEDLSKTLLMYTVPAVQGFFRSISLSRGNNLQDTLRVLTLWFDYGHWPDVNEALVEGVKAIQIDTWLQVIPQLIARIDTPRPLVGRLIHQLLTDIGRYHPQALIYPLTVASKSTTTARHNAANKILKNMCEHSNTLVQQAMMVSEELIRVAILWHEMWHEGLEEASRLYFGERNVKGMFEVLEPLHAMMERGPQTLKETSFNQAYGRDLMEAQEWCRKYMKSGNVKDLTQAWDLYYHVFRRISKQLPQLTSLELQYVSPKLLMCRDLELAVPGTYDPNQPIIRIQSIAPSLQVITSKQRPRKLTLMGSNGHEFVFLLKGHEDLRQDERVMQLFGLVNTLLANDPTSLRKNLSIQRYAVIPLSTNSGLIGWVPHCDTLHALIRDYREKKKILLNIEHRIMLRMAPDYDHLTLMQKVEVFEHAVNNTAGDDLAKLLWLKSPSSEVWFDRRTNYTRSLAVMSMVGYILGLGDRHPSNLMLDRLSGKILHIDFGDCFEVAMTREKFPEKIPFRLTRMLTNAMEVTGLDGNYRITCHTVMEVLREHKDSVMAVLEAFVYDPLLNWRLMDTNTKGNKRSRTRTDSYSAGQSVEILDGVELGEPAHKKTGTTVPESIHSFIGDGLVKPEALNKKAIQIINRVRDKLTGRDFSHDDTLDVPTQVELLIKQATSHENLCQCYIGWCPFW

B1: ETV7 protein (recombinant) (natural protein)
chain: MQEGELAISPISPVAAMPPLGTHVQARCEAQINLLGEGGICKLPGRLRIQPALWSREDVLHWLRWAEQEYSLPCTAEHGFEMNGRALCILTKDDFRHRAPSSGDVLYELLQYIKTQRRALVCGPFFGGIFRLKTPTQHSPVPPEEVTGPSQMDTRRGHLLQPPDPGLTSNFGHLDDPGLARWTPGKEESLNLCHCAELGCRTQGVCSFPAMPQAPIDGRIADCRLLWDYVYQLLLDTRYEPYIKWEDKDAKIFRVVDPNGLARLWGNHKNRVNMTYEKMSRALRHYYKLNIIKKEPGQKLLFRFLKTPGKMVQDKHSHLEPLESQEQDRIEFKDKRPEISP
notes: ETV7, bought recombinant protein; also called ETV7 (in vitro); purified ETV7; source: bought: Origene (Cat #TP307742)
Regarding B1, the binding result is recorded as “binds”.

For the origin of these results see PMC11432197 (International Journal of Molecular Sciences, 2024).
